Legend:
[1] = target: Proteus mirabilis suppressor of copper sensitivity protein C (PmScsC) (Proteus mirabilis); test: SAXS
[2] = target: PmScsCΔLinker (Proteus mirabilis); test: SAXS
[3] = target: PmScsCΔLinker (Proteus mirabilis); test: crystal structure

Row | Substance | percent present as monomer at 0.1 mg/mL [1] | stoichiometry N [1] | Kd [2] | percent dimer at 0.1 mg/mL [2] | percent dimer at 10 mg/ml [2] | percent monomer at 0.1 mg/mL [2] | percent monomer at 10 mg/ml [2] | percent trimer at 10 mg/ml [2] | stoichiometry N [3]
1 | Proteus mirabilis suppressor of copper sensitivity protein C (PmScsC) (enzyme) | 1% | 3 | – | – | – | – | – | – | –
2 | PmScsCΔLinker (enzyme) | – | – | 200 µM | 3% | 48% | 97% | 40% | 12% | 3
